Laboratory results: the supplement of paper PMC9170038

Experiments:
MS2 coat protein [1] = experiment: apparent KD of MS2 coat protein; designed switch direction (-1 OFF switch, 1 ON switch): 1; higher = weaker reporter binding; details: Eterna round: R98
Protocol: (§1)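 RNA-MaP: designed FMN/MS2 RNA switches (84 nt design region) are transcribed on-chip within common flanks and titrated with SNAP-549-labelled MS2 coat protein (about 1-3000 nM) in 100 mM Tris pH 7.5, 80 mM KCl, 4 mM MgCl2, without or with 200 uM FMN. Median apparent KD per design; activation ratio = KD,OFF / KD,ON.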

MS2 coat protein [2] = experiment: apparent KD of MS2 coat protein; designed switch direction (-1 OFF switch, 1 ON switch): -1; higher = weaker reporter binding; details: Eterna round: R98
Protocol: as §1

MS2 coat protein [3] = experiment: apparent KD of MS2 coat protein; higher = weaker reporter binding; details: Eterna round: R101
Protocol: as §1

Sequence	apparent KD of MS2 coat protein (MS2 coat protein [1]; input ligand: FMN 200 uM) [nM]	apparent KD of MS2 coat protein (MS2 coat protein [1]; input ligand: none) [nM]	apparent KD of MS2 coat protein (MS2 coat protein [3]; input ligand: FMN 200 uM) [nM]	apparent KD of MS2 coat protein (MS2 coat protein [3]; input ligand: none) [nM]	also measured
CUGCAAUUCUUAGGAUAUGCUCAGGAAUACUGAGCAGAAGGAAGAUAUACCUGAGGAUCACCCAGGUUAAACUGGAGCAGAAUA [Same State NG1 - A3C, U17G Submission 8A]	32.2	181			
GCAGAAGGUGCGGAGGAUCACCCUGUAAGGAUAUGCAUUAGCAAGGAUAUACAGAGGAUCACCCUGUAGAAGGUGCACUUCUGC [pwkr2 ssNG3 DX.9]	1310	897			
CACGUCCUCACAGGAUAUGCUGGACUUUGUCCAGCAGAAGGGUGAACAUGAGGAUCACCCAUGUAAAGGACGUGUAUAUUUAAU [Denovo 23]	72.5	587			
GCAGAAGGUGCGGAGGAUCACCCUGUAAGGAUAUGCAUUAGCAAGGAUAUACAGAGGAUCACCCUGUAGAAGGUGCACUACUCU [pwkr2 ssNG3 DX.1]	1140	1430			
CUGGUGAUGUAAGGAUAUGCUGAGGAUAACUCAGCAGAAGGUACAUGAGGAUCACCCAUGUAAAUGAAAGAUAAUAAACACCAG [Excusion NG 1/16-B2]					apparent KD of MS2 coat protein (MS2 coat protein [2]; input ligand: FMN 200 uM): 30.9 nM; apparent KD of MS2 coat protein (MS2 coat protein [2]; input ligand: none): 15.9 nM
UGGUACAUGGGAGGAUAUGGGUUGAUAACAUGAGGAUCACCCAUGUUAAAUAAGCCGAGAGGCUACUAGAAGGCCCAUGUACCU [#InverseDoubleMagnetSystem - JL SNG1 3.00 18] (puzzle (switch architecture): Same State NG 2)			10.6	293	
GGAGACCUUACAGGAUAUGCUGGACUUUGUCCAGCAGAAGGGUGAAUACAUGAGGAUCACCCAUGUAUGGUCUCCAAAUUUAAU [jl-ssng1-3.05 #GC_VS_GU_SWITCHING] (puzzle (switch architecture): Same State NG 1)			121	52.2	
GAUACAUAGCAAGGAUAUCCACAUGAGGAUCACCCAUGUGCGUAAUCUGGGCGGUGGAAGAAAGUGGAGAAGGUGUUAGGUUGA [Atia]					apparent KD of MS2 coat protein (MS2 coat protein [2]; input ligand: FMN 200 uM): 106 nM; apparent KD of MS2 coat protein (MS2 coat protein [2]; input ligand: none): 64.2 nM
GCUUGCGACGCAGGAUAUGGGUGCCUGCACACGAGGAUCACCCGUGUAGAGGAACGGAUUACGUCUCAGAAGGGCGUGGCAGGC [United States 4 - Jieux - Same State NG 2]	21.8	88.9			
AAGUGAAAUCAGAAGGGCUCCAGCAAAGCUGGAGCAGGAUAUGAGGAUCACCCAUAUCACCUGACGGUCGAAACGACCGUCAGG [#SharedSequence - IExNG1: 5-1] (puzzle (switch architecture): Inverted Exclusion NG 1)			147	21.2	
AAUAAAACUCAAGGAUAUCAGUGGCAAAGCCACUGAGAAGGUGAGGAUCACCCACCUACGUGACGCUGGAAACAGCGUCACGAA [#SharedSequence ExNG1 - 33] (puzzle (switch architecture): Exclusion NG 1)			36.3	15.8	
AAGUUUUUACAAGGAUAUCAGUUGUUUAUAAAUUAAACAUGAGGAUCACCCAUGUAACAAAGGAGUGAGAAGGUGUGUUGGAAA [JR_SSNG2_Sub089]	319	408			
GGGUACAUCGGAGGAUAUCAUGUAAAUACAUGAGGAUCACCCAUGUCGAUGGAGACAUAGGAGAUUGAGAAGGCCGAUGUACCG (puzzle (switch architecture): Same State NG 2)			144	74	
GCUCUCACUUGAGGAUAUCGAGUGGAUAACACUCGAGAAGGCAGGGAAACCUGAGGAUCACCCAGGUAACUGGAAAGAGAGCAA [Same State NG1 - A3C, U17G Submission 5D]	20.4	31.8			
UUAUGAGCGAUAGGAUAUACUGAGAUUGAAUGGGUAGAAGGAUCAAUCGUGUGGAAGACAUGAGGAUCACCCAUGUUACGGGCC [SameState #75 NG1]	510	221			
GGAGAUACAUGAGGAUCACCCAUGUAGGAUAUCGGGCCCAUACCCGGCGAAAGCCGGGUAUGGGCCGAGAAGGGCGUACACACC [#LOL-5] (puzzle (switch architecture): Small Loop Exclusion NG 3)			7.47	8.26	
UGCUAACUGUAGAAGGGUGACAUGAGGAUCACCCAUGUGCACGCGCGCUUUACGGCGCGCGUGCCACAGGAUAUACAGUUGAGU [Erora] (puzzle (switch architecture): Inverted Same State NG 2)			55.1	43.1	

Sequence	apparent KD of MS2 coat protein (MS2 coat protein [1]; input ligand: FMN 200 uM) [nM]	apparent KD of MS2 coat protein (MS2 coat protein [1]; input ligand: none) [nM]	apparent KD of MS2 coat protein (MS2 coat protein [3]; input ligand: FMN 200 uM) [nM]	apparent KD of MS2 coat protein (MS2 coat protein [3]; input ligand: none) [nM]	also measured
AAUAAACAAUAAAAGAGUCCACGAAACUUCUGAGGAUCACCCAGAAGGGCUGAGGUAAUACCUCAGCAGGAUAUGGACGUGGAC [#SharedSequence IExNG# - 1] (puzzle (switch architecture): Inverted Exclusion NG 3)			5.09	5	
CAUGUCCUCACAGGAUAUGCUGGACUUUGUCCAGCAGAAGGGUGAACAUGAGGAUCACCCAUGUAAUGGACAUGUAUAUUUAAG [Mat - Same State NG 1 - Eli mod - D98]	49.4	902			
GGAGACCUCACAGGAUAUGCUGGACUUUGUCCAGCAGAAGGGUGACUAACAUGAGGAUCACCCAUGUAGGUCUCCAAAUUUAAU [Denovo 58]	631	40.8			
ACAUAAUGGUGAGGAUAUGCACAGGAUCACCGUGUAGAAGGCAUCAGGUAGAAGGUGCAGAGGAUCACCCUGUAAGGAUAUAUC [pwkr2 ssNG1 DX.19]	94.6	562			
CCUGACACUUGAGGAUAUGCUCAGGAAUACUGAGCAGAAGGCAGGAAAACCUGAGGAUCACCCAGGUAAGUCAGGAAUAAUAAA [Same State NG1 - A3C, U17G Submission 3A]	17.2	20.7			
AAAUAACUUGAAGGAUAUGACCCUCGAGGUGACUAAAAGUCACCUCGAGGGUCAGAAGGUCGAGGAUCACCCGACCAAGUGAAA [#SharedSequence SLExNG1: 9] (puzzle (switch architecture): Small Loop Exclusion NG 1)			13.3	9.17	
CGCUAUGAUGGUUGUAAUAGAGCAUAGGAUAUGCUUGUACAUGAGGAUCACCCAUGUUAUAUUUUGCAGAAGGGUGCAUUUGCG [JR #DistanceFar #Hairpin #NP SLSSNG3 Sub073] (puzzle (switch architecture): Small Loop Same State NG 3)			30.1	59.9	
GGAGGAGGAUAAGGAUAUAACAUGAGGAUCACCCAUGUGGAGGAGGAGGAGGAGGAGGAGGAGGGUUAGAAGGUAUGGAGGAGG [First attempt] (puzzle (switch architecture): Exclusion NG 2)			11	16.2	
GAGCUGCUCUGAGGAUAUGGGUUUAUAAGGACGGGCACGCCCGACAUGAGGAUCACCCAUGUCUACCAGAAGGCAGAAAAGUUC [Mamain]	394	171			
AAAUAAAUUGAAGGAUAUGACCCUCGAGGUGACUAAAAGUCACCUCGAGGGUCAGAAGGUCGAGGAUCACCCGAUCUAAAUAAA [#SharedSequence SLExNG1: 1-1] (puzzle (switch architecture): Small Loop Exclusion NG 1)			13.1	8.27	
UUGGUUGUCGUAGGAUAUGUAGGAUAUUCCUACAUGAGGAUCACCCAUGUUCGCAUGGAAGAAGGACAGAAGGACGAUGACCAU [salish99_SSNG2_001 #endbits investigation] (puzzle (switch architecture): Same State NG 2)			9.52	1280	
UUGGUUCUCGUAGGAUAUGUAGGAUAUGCCUACAUGAGGAUCACCCAUGUUCGCAUGGCAGAAGGACAGAAGGACGAUCACCAU [pwkr ssNG2 2FMN +1F5.17]	20.8	288			
CUAUUAUAUGUAGGAUAUGCAUAUUAUUAUUGUGCAGAAGGACAUGAGGAUCACCCAUGUAUAUUAUUAUUAUAUAUUAUAUAU (puzzle (switch architecture): Exclusion NG 1)			11.8	16.5	
AAAUGAUAUCAGAAGGGCUCCAGCAAAGCUGGAGCAGGAUAUGAGGAUCACCCAUAUCACCUGACGGUCGAAACGACCGUCAGG [#SharedSequence - IExNG1: 7-1] (puzzle (switch architecture): Inverted Exclusion NG 1)			62.1	15.5	
GCGUCCCGCAGAGGAUAUGUUGUUCGGCCUACAUGAGGAUCACCCAUGUCAAAGGGCUGAUCCCAACAGAAGGCUGAAGGAUAC [Qumarera]	8.73	64			
GGAGCACACAUUAACAUGAGGAUCACCCAUGUCAAAAGACAUGAGGAUAUGGAUCCGAAAAGGAUCCAGAAGGCAUGGUGCUCC [EliMod 8 - Jieux - Same State NG 3]	35.1	598			
AAAAAUUCUUAAGGAUAUGACUCCGAAACGGAGUCAGAAGGUGAGGAUCACCCACCUAGCUCAGCGUCGAAAGACGCUGAGCAA [#SharedSequence ExNG1 - 28] (puzzle (switch architecture): Exclusion NG 1)			12	10.9	
